Test results reported in the supplement of paper PMC9112550, “Optimization of the antimicrobial peptide Bac7 by deep mutational scanning” (BMC Biology, 2022).

system: Escherichia coli TOP10; experiment: shrunken log2 fold change of peptide-encoding DNA abundance (4.5 h post-induction vs induction); higher = less antimicrobial activity (less host growth inhibition); conditions: time post-induction: 4.5 h; library: site-saturation at positions 5, 18, 19, 20
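Note: peptides expressed intracellularly from a pBAD plasmid library in pooled LB shake-flask culture, induced with 0.3% L-arabinose, DNA abundance read by NGS, three biological replicates, DESeq2 with apeglm shrinkage.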

Question: With RRIRQRPPRLPRPRPRPEWQPRP as the sequence, how does the “shrunken log2 fold change” value read?
Answer: 0.00709

Question: Which “shrunken log2 fold change” value does the source give for RRIRKRPPRLPRPRPRPCDLPRP here?
Answer: 0.209

Question: Which “shrunken log2 fold change” value does the source give for RRIRKRPPRLPRPRPRPFKEPRP here?
Answer: -0.0549

Question: How did the “shrunken log2 fold change” value turn out when RRIRTRPPRLPRPRPRPSKEPRP was run?
Answer: -0.598

Question: RRIRERPPRLPRPRPRPYFSPRP was tested. Which “shrunken log2 fold change” value did it give?
Answer: -0.247

Question: For RRIRERPPRLPRPRPRPMGEPRP, which “shrunken log2 fold change” value is on record?
Answer: -0.00192

Question: How did the “shrunken log2 fold change” value turn out when RRIRERPPRLPRPRPRPNDMPRP was run?
Answer: -0.0595

Question: RRIRCRPPRLPRPRPRPWPFPRP was tested. Which “shrunken log2 fold change” value did it give?
Answer: -0.121

Question: Which “shrunken log2 fold change” value does the source give for RRIRRRPPRLPRPRPRPHTKPRP here?
Answer: 0.179

Question: Which “shrunken log2 fold change” value does the source give for RRIRTRPPRLPRPRPRPNWPPRP here?
Answer: -0.0423

Question: How did the “shrunken log2 fold change” value turn out when RRIRQRPPRLPRPRPRPRWRPRP was run?
Answer: 0.557

Question: Which “shrunken log2 fold change” value does the source give for RRIRMRPPRLPRPRPRPVYFPRP here?
Answer: -0.0299

Question: With RRIRSRPPRLPRPRPRPLVSPRP as the sequence, how does the “shrunken log2 fold change” value read?
Answer: 0.208

Question: Which “shrunken log2 fold change” value does the source give for RRIRKRPPRLPRPRPRPKYHPRP here?
Answer: -0.204

Question: For RRIRKRPPRLPRPRPRPKWQPRP, which “shrunken log2 fold change” value is on record?
Answer: 0.0343

Question: Which “shrunken log2 fold change” value does the source give for RRIRNRPPRLPRPRPRPKQHPRP here?
Answer: -0.253

Question: For RRIRSRPPRLPRPRPRPEFWPRP, which “shrunken log2 fold change” value is on record?
Answer: 0.281

Question: For RRIRTRPPRLPRPRPRPPPIPRP, which “shrunken log2 fold change” value is on record?
Answer: 0.451

Question: How did the “shrunken log2 fold change” value turn out when RRIRDRPPRLPRPRPRPHDVPRP was run?
Answer: -0.00973

Question: With RRIRARPPRLPRPRPRPDYEPRP as the sequence, how does the “shrunken log2 fold change” value read?
Answer: 0.00147

Question: With RRIRCRPPRLPRPRPRPTMKPRP as the sequence, how does the “shrunken log2 fold change” value read?
Answer: -0.246

Question: With RRIRDRPPRLPRPRPRPYHRPRP as the sequence, how does the “shrunken log2 fold change” value read?
Answer: 0.0231

Question: With RRIRTRPPRLPRPRPRPMYEPRP as the sequence, how does the “shrunken log2 fold change” value read?
Answer: -0.375

Question: How did the “shrunken log2 fold change” value turn out when RRIRKRPPRLPRPRPRPLRIPRP was run?
Answer: 0.648

Question: With RRIRTRPPRLPRPRPRPKRYPRP as the sequence, how does the “shrunken log2 fold change” value read?
Answer: -0.154

Question: With RRIRNRPPRLPRPRPRPRYYPRP as the sequence, how does the “shrunken log2 fold change” value read?
Answer: -0.705

Question: Which “shrunken log2 fold change” value does the source give for RRIRYRPPRLPRPRPRPYCDPRP here?
Answer: -0.379

Question: How did the “shrunken log2 fold change” value turn out when RRIRSRPPRLPRPRPRPDLHPRP was run?
Answer: -0.0732

Question: Which “shrunken log2 fold change” value does the source give for RRIRYRPPRLPRPRPRPEQFPRP here?
Answer: -0.14

Question: With RRIRDRPPRLPRPRPRPRKPPRP as the sequence, how does the “shrunken log2 fold change” value read?
Answer: 0.39

Question: With RRIRARPPRLPRPRPRPLCYPRP as the sequence, how does the “shrunken log2 fold change” value read?
Answer: -0.0201

Question: Which “shrunken log2 fold change” value does the source give for RRIRSRPPRLPRPRPRPYCSPRP here?
Answer: -0.094

Question: With RRIRQRPPRLPRPRPRPFISPRP as the sequence, how does the “shrunken log2 fold change” value read?
Answer: -0.0195

Question: RRIRLRPPRLPRPRPRPVDHPRP was tested. Which “shrunken log2 fold change” value did it give?
Answer: -0.0221

Question: For RRIRRRPPRLPRPRPRPEHSPRP, which “shrunken log2 fold change” value is on record?
Answer: 0.143

Question: RRIRKRPPRLPRPRPRPKHHPRP was tested. Which “shrunken log2 fold change” value did it give?
Answer: 0.122

Question: For RRIRCRPPRLPRPRPRPLCCPRP, which “shrunken log2 fold change” value is on record?
Answer: -0.237

Question: How did the “shrunken log2 fold change” value turn out when RRIRLRPPRLPRPRPRPRVTPRP was run?
Answer: -0.243

Question: RRIRGRPPRLPRPRPRPIPTPRP was tested. Which “shrunken log2 fold change” value did it give?
Answer: 0.00615

Question: With RRIRFRPPRLPRPRPRPDMFPRP as the sequence, how does the “shrunken log2 fold change” value read?
Answer: -0.0758

Question: How did the “shrunken log2 fold change” value turn out when RRIRCRPPRLPRPRPRPFSPPRP was run?
Answer: -0.181

Question: With RRIRKRPPRLPRPRPRPVEVPRP as the sequence, how does the “shrunken log2 fold change” value read?
Answer: 0.0844

Question: Which “shrunken log2 fold change” value does the source give for RRIRRRPPRLPRPRPRPWNNPRP here?
Answer: -0.173

Question: For RRIRERPPRLPRPRPRPQSMPRP, which “shrunken log2 fold change” value is on record?
Answer: -0.0801

Question: With RRIRKRPPRLPRPRPRPCLMPRP as the sequence, how does the “shrunken log2 fold change” value read?
Answer: -0.0503

Question: For RRIRFRPPRLPRPRPRPYSNPRP, which “shrunken log2 fold change” value is on record?
Answer: -0.603

Question: Which “shrunken log2 fold change” value does the source give for RRIRHRPPRLPRPRPRPFGDPRP here?
Answer: -0.257

Question: Which “shrunken log2 fold change” value does the source give for RRIRIRPPRLPRPRPRPWMQPRP here?
Answer: -0.182

Question: With RRIRHRPPRLPRPRPRPYWIPRP as the sequence, how does the “shrunken log2 fold change” value read?
Answer: -0.124

Question: How did the “shrunken log2 fold change” value turn out when RRIRMRPPRLPRPRPRPWANPRP was run?
Answer: -0.0525

Question: With RRIRDRPPRLPRPRPRPGSVPRP as the sequence, how does the “shrunken log2 fold change” value read?
Answer: 0.113

Question: For RRIRKRPPRLPRPRPRPQAVPRP, which “shrunken log2 fold change” value is on record?
Answer: 0.0562

Question: How did the “shrunken log2 fold change” value turn out when RRIRLRPPRLPRPRPRPFDEPRP was run?
Answer: 0.0466

Question: RRIRTRPPRLPRPRPRPAMYPRP was tested. Which “shrunken log2 fold change” value did it give?
Answer: -0.106

Question: Which “shrunken log2 fold change” value does the source give for RRIRRRPPRLPRPRPRPWLDPRP here?
Answer: -0.0721

Question: With RRIRLRPPRLPRPRPRPSGCPRP as the sequence, how does the “shrunken log2 fold change” value read?
Answer: 0.345

Question: RRIRIRPPRLPRPRPRPLMKPRP was tested. Which “shrunken log2 fold change” value did it give?
Answer: -0.232

Question: Which “shrunken log2 fold change” value does the source give for RRIRLRPPRLPRPRPRPNQDPRP here?
Answer: -0.0883

Question: RRIRARPPRLPRPRPRPCLLPRP was tested. Which “shrunken log2 fold change” value did it give?
Answer: 0.0509

Question: RRIRARPPRLPRPRPRPFHQPRP was tested. Which “shrunken log2 fold change” value did it give?
Answer: -0.211

Question: With RRIRIRPPRLPRPRPRPLMWPRP as the sequence, how does the “shrunken log2 fold change” value read?
Answer: -0.115

Question: RRIRIRPPRLPRPRPRPVDHPRP was tested. Which “shrunken log2 fold change” value did it give?
Answer: -0.498

Question: For RRIRSRPPRLPRPRPRPREAPRP, which “shrunken log2 fold change” value is on record?
Answer: 0.587

Question: RRIRARPPRLPRPRPRPHMLPRP was tested. Which “shrunken log2 fold change” value did it give?
Answer: -0.196

Question: How did the “shrunken log2 fold change” value turn out when RRIRLRPPRLPRPRPRPSLCPRP was run?
Answer: -0.462

Question: RRIRFRPPRLPRPRPRPDQQPRP was tested. Which “shrunken log2 fold change” value did it give?
Answer: -0.078

Question: RRIRKRPPRLPRPRPRPDFCPRP was tested. Which “shrunken log2 fold change” value did it give?
Answer: 0.129

Question: RRIRCRPPRLPRPRPRPCWAPRP was tested. Which “shrunken log2 fold change” value did it give?
Answer: -0.0725

Question: How did the “shrunken log2 fold change” value turn out when RRIRWRPPRLPRPRPRPTCEPRP was run?
Answer: 0.752

Question: Which “shrunken log2 fold change” value does the source give for RRIRYRPPRLPRPRPRPHVIPRP here?
Answer: -0.448

Question: With RRIRGRPPRLPRPRPRPHWGPRP as the sequence, how does the “shrunken log2 fold change” value read?
Answer: 0.247

Question: For RRIRDRPPRLPRPRPRPLDHPRP, which “shrunken log2 fold change” value is on record?
Answer: 0.0841

Question: RRIRYRPPRLPRPRPRPLRNPRP was tested. Which “shrunken log2 fold change” value did it give?
Answer: -0.277

Question: With RRIRFRPPRLPRPRPRPDLSPRP as the sequence, how does the “shrunken log2 fold change” value read?
Answer: -0.0807

Question: RRIRIRPPRLPRPRPRPVVGPRP was tested. Which “shrunken log2 fold change” value did it give?
Answer: 0.0233
